± gives the uncertainty stated by the source.
B1: Intersectin-1, residues 1156 to 1213; numbered along this chain, Q15811 (parent)
chain: AVCQVIGMYDYTAQNDDELAFNKGQIINVLNKEDPDWWKGEVNGQVGLFPSNYVKLTT

Variants of: B1
Experiment: abundance fitness (aPCA) (normalised: wild type 0, dead -1); higher = more abundant; growth selection in yeast, the domain comes from the species named
Conditions: Homo sapiens

Question: For AVCQVIGMYDYTAQNDKELAFNKGQIINVLNKEDPDWWKGEVNGQVGLFPSNYVKLTT [D17K], which abundance fitness is on record?
Answer: -0.099 ± 0.16

Question: With AVCQVIGMYDYTAQNDEELAFNKGQIINVLNKEDPDWWKGEVNGQVGLFPSNYVKLTT [D17E] as the variant, how does the abundance fitness read?
Answer: -0.03 ± 0.12

Question: Which abundance fitness does the source give for AVCQVIGMYDYTAQNDFELAFNKGQIINVLNKEDPDWWKGEVNGQVGLFPSNYVKLTT [D17F] here?
Answer: -0.359 ± 0.19

Question: With AVCQVIGMYDYTAQNDGELAFNKGQIINVLNKEDPDWWKGEVNGQVGLFPSNYVKLTT [D17G] as the variant, how does the abundance fitness read?
Answer: 0.101 ± 0.072

Question: With AVCQVIGMYDYTAQNDLELAFNKGQIINVLNKEDPDWWKGEVNGQVGLFPSNYVKLTT [D17L] as the variant, how does the abundance fitness read?
Answer: -0.125 ± 0.099

Question: For AVCQVIGMYDYTAQNDHELAFNKGQIINVLNKEDPDWWKGEVNGQVGLFPSNYVKLTT [D17H], which abundance fitness is on record?
Answer: -0.298 ± 0.13

Question: Which abundance fitness does the source give for AVCQVIGMYDYTAQNDIELAFNKGQIINVLNKEDPDWWKGEVNGQVGLFPSNYVKLTT [D17I] here?
Answer: -0.419 ± 0.23

Question: For AVCQVIGMYDYTAQNDCELAFNKGQIINVLNKEDPDWWKGEVNGQVGLFPSNYVKLTT [D17C], which abundance fitness is on record?
Answer: -0.344 ± 0.17

Question: For AVCQVIGMYDYTAPNDDELAFNKGQIINVLNKEDPDWWKGEVNGQVGLFPSNYVKLTT [Q14P], which abundance fitness is on record?
Answer: -0.844 ± 0.14

Question: With AVCQVIGMYDYTAYNDDELAFNKGQIINVLNKEDPDWWKGEVNGQVGLFPSNYVKLTT [Q14Y] as the variant, how does the abundance fitness read?
Answer: -0.922 ± 0.26

Question: For AVCQVIGMYDYTARNDDELAFNKGQIINVLNKEDPDWWKGEVNGQVGLFPSNYVKLTT [Q14R], which abundance fitness is on record?
Answer: 0.038 ± 0.073

Question: For AVCQVIGMYDYTAVNDDELAFNKGQIINVLNKEDPDWWKGEVNGQVGLFPSNYVKLTT [Q14V], which abundance fitness is on record?
Answer: -0.263 ± 0.12

Question: For AVCQVIGMYDYTAWNDDELAFNKGQIINVLNKEDPDWWKGEVNGQVGLFPSNYVKLTT [Q14W], which abundance fitness is on record?
Answer: -0.723 ± 0.12

Question: For AVCQVIGMYDYTATNDDELAFNKGQIINVLNKEDPDWWKGEVNGQVGLFPSNYVKLTT [Q14T], which abundance fitness is on record?
Answer: -0.255 ± 0.11

Question: Which abundance fitness does the source give for AVCQVIGMYDYTAQDDDELAFNKGQIINVLNKEDPDWWKGEVNGQVGLFPSNYVKLTT [N15D] here?
Answer: -0.185 ± 0.14

Question: With AVCQVIGMYDYTAQWDDELAFNKGQIINVLNKEDPDWWKGEVNGQVGLFPSNYVKLTT [N15W] as the variant, how does the abundance fitness read?
Answer: -0.635 ± 0.12

Question: With AVCQVIGMYDYTAQVDDELAFNKGQIINVLNKEDPDWWKGEVNGQVGLFPSNYVKLTT [N15V] as the variant, how does the abundance fitness read?
Answer: -0.639 ± 0.1

Question: For AVCQVIGMYDYTAQEDDELAFNKGQIINVLNKEDPDWWKGEVNGQVGLFPSNYVKLTT [N15E], which abundance fitness is on record?
Answer: -0.17 ± 0.11

Question: For AVCQVIGMYDYTAQQDDELAFNKGQIINVLNKEDPDWWKGEVNGQVGLFPSNYVKLTT [N15Q], which abundance fitness is on record?
Answer: -0.185 ± 0.1

Question: Which abundance fitness does the source give for AVCQVIGMYDYTAQPDDELAFNKGQIINVLNKEDPDWWKGEVNGQVGLFPSNYVKLTT [N15P] here?
Answer: -0.964 ± 0.17

Question: Which abundance fitness does the source give for AVCQVIGMYDYTAQADDELAFNKGQIINVLNKEDPDWWKGEVNGQVGLFPSNYVKLTT [N15A] here?
Answer: -0.131 ± 0.095

Question: With AVCQVIGMYDYTAQFDDELAFNKGQIINVLNKEDPDWWKGEVNGQVGLFPSNYVKLTT [N15F] as the variant, how does the abundance fitness read?
Answer: -0.539 ± 0.21

Question: Which abundance fitness does the source give for AVCQVIGMYDYTAQGDDELAFNKGQIINVLNKEDPDWWKGEVNGQVGLFPSNYVKLTT [N15G] here?
Answer: 0.047 ± 0.085

Question: Which abundance fitness does the source give for AVCQVIGMYDYTAQIDDELAFNKGQIINVLNKEDPDWWKGEVNGQVGLFPSNYVKLTT [N15I] here?
Answer: -0.664 ± 0.25

Question: For AVCQVIGMYDYTAQKDDELAFNKGQIINVLNKEDPDWWKGEVNGQVGLFPSNYVKLTT [N15K], which abundance fitness is on record?
Answer: 0.047 ± 0.11

Question: With AVCQVIGMYDYTAQHDDELAFNKGQIINVLNKEDPDWWKGEVNGQVGLFPSNYVKLTT [N15H] as the variant, how does the abundance fitness read?
Answer: -0.433 ± 0.16

Question: For AVCQVIGMYDYTAQRDDELAFNKGQIINVLNKEDPDWWKGEVNGQVGLFPSNYVKLTT [N15R], which abundance fitness is on record?
Answer: 0.038 ± 0.075

Question: With AVCQVIGMYDYTAQSDDELAFNKGQIINVLNKEDPDWWKGEVNGQVGLFPSNYVKLTT [N15S] as the variant, how does the abundance fitness read?
Answer: 0.085 ± 0.096

Question: For AVCQVIGMYDYTAQLDDELAFNKGQIINVLNKEDPDWWKGEVNGQVGLFPSNYVKLTT [N15L], which abundance fitness is on record?
Answer: -0.612 ± 0.087

Question: For AVCQVIGMYDYTAQTDDELAFNKGQIINVLNKEDPDWWKGEVNGQVGLFPSNYVKLTT [N15T], which abundance fitness is on record?
Answer: 0.024 ± 0.12

Question: Which abundance fitness does the source give for AVCQVIGMYDYTAQNEDELAFNKGQIINVLNKEDPDWWKGEVNGQVGLFPSNYVKLTT [D16E] here?
Answer: 0.059 ± 0.12

Question: With AVCQVIGMYDYTAQNNDELAFNKGQIINVLNKEDPDWWKGEVNGQVGLFPSNYVKLTT [D16N] as the variant, how does the abundance fitness read?
Answer: -0.302 ± 0.15

Question: With AVCQVIGMYDYTAQNCDELAFNKGQIINVLNKEDPDWWKGEVNGQVGLFPSNYVKLTT [D16C] as the variant, how does the abundance fitness read?
Answer: -0.166 ± 0.11

Question: Which abundance fitness does the source give for AVCQVIGMYDYTAQNWDELAFNKGQIINVLNKEDPDWWKGEVNGQVGLFPSNYVKLTT [D16W] here?
Answer: -0.726 ± 0.12

Question: For AVCQVIGMYDYTAQNRDELAFNKGQIINVLNKEDPDWWKGEVNGQVGLFPSNYVKLTT [D16R], which abundance fitness is on record?
Answer: -0.293 ± 0.074

Question: For AVCQVIGMYDYTAQNSDELAFNKGQIINVLNKEDPDWWKGEVNGQVGLFPSNYVKLTT [D16S], which abundance fitness is on record?
Answer: -0.296 ± 0.089

Question: For AVCQVIGMYDYTAQNADELAFNKGQIINVLNKEDPDWWKGEVNGQVGLFPSNYVKLTT [D16A], which abundance fitness is on record?
Answer: -0.232 ± 0.096

Question: Which abundance fitness does the source give for AVCQVIGMYDYTAQNGDELAFNKGQIINVLNKEDPDWWKGEVNGQVGLFPSNYVKLTT [D16G] here?
Answer: -0.121 ± 0.077

Question: Which abundance fitness does the source give for AVCQVIGMYDYTAQNTDELAFNKGQIINVLNKEDPDWWKGEVNGQVGLFPSNYVKLTT [D16T] here?
Answer: -0.232 ± 0.11

Question: Which abundance fitness does the source give for AVCQVIGMYDYTAQNLDELAFNKGQIINVLNKEDPDWWKGEVNGQVGLFPSNYVKLTT [D16L] here?
Answer: -0.3 ± 0.088

Question: For AVCQVIGMYDYTAQNPDELAFNKGQIINVLNKEDPDWWKGEVNGQVGLFPSNYVKLTT [D16P], which abundance fitness is on record?
Answer: -0.259 ± 0.13

Question: With AVCQVIGMYDYTAQNQDELAFNKGQIINVLNKEDPDWWKGEVNGQVGLFPSNYVKLTT [D16Q] as the variant, how does the abundance fitness read?
Answer: 0.115 ± 0.13

Question: With AVCQVIGMYDYTAQNIDELAFNKGQIINVLNKEDPDWWKGEVNGQVGLFPSNYVKLTT [D16I] as the variant, how does the abundance fitness read?
Answer: -0.108 ± 0.13

Question: With AVCQVIGMYDYTAQNYDELAFNKGQIINVLNKEDPDWWKGEVNGQVGLFPSNYVKLTT [D16Y] as the variant, how does the abundance fitness read?
Answer: -0.588 ± 0.21

Question: For AVCQVIGMYDYTAQNMDELAFNKGQIINVLNKEDPDWWKGEVNGQVGLFPSNYVKLTT [D16M], which abundance fitness is on record?
Answer: -0.225 ± 0.11

Question: Which abundance fitness does the source give for AVCQVIGMYDYTAQNHDELAFNKGQIINVLNKEDPDWWKGEVNGQVGLFPSNYVKLTT [D16H] here?
Answer: -0.614 ± 0.2
